The target of this experiment is antigen bound by the GC4 antibody on GBM tumor sphere cells (target antigen not determined). Description: FACS on GBM tumor sphere cells at RT, MFI fitted (apparent dissociation constant).

B1: recombinant human GC4 IgG1 (antibody, V domains shown)
VH: QVQLVESGGGLVQPGGSLRLSCAASGFTFGTYDMSWVRQAPGKGLEWVSGISGSGGSTYYADSVKGRFTISRDNSKNTVYLQMNSLRVEDTAVYYCARGGWYSDNWGQGTLVTVSS
VL: SELTQDPAVSVALGQTVRITCQGGSLRSYYASWYQQKPGQAPLLVIYGENNRPSGIPDRFSGSSSGNTASLTITGAQAEDEADYYCHSRDSSGNHVVFGGGTKLTV
With B1, the Kd was determined as 79.7 nM.
